The subject of this data set is Bacillus subtilis DB104 (SP-AmyQ fusion secretion). Put plainly: AmyQ secretion efficiency, weighted average sort bin (1 = best secretion, 10 = worst) (bin number (weighted average, 1-10)); higher = lower secretion efficiency. A digest of the protocol:
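The secretion score was taken as the read-frequency-weighted mean bin number, normalised to beads per bin, with low-abundance sequences excluded. Bins came from large-particle flow cytometry sorting of occupied alginate beads (~65 nL, about 0.3 cells each, with fluorescein-starch) into 10 equally populated groups by green/red fluorescence ratio after about 13 h at room temperature and nile red staining. The cells were a B. subtilis DB104 library with mature AmyQ fused to designed signal peptides, integrated at amyE, and each bin's amplicons were Illumina-sequenced.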

As to MRHKIITFILAVVVIIIIGNMIGGGGGSEAEDD, the AmyQ secretion efficiency was 6.34.

As for MRNLTKTSLLLAGLCTAAQMVFVTHASAATD, the AmyQ secretion efficiency was 2.35.

MKRTWNVCLTALLSVLLVAGSVGFVAEAKKP: the AmyQ secretion efficiency came to 3.4.

As to MKSKWMSGLLLVAVGFSFTLFSSAVVSTQVMVHAGET, the AmyQ secretion efficiency is 7.18.

MRKKLKWLSFLLGFIILLFLFKKRKKRFSNNDS gave an AmyQ secretion efficiency of 7.3.

MFGMSTISLLIIFLLASAVLAKPIEAHTV yielded an AmyQ secretion efficiency of 2.54.

Regarding MRKRRKKILALFVLSLGLLSFMVTPVSAASK, the AmyQ secretion efficiency was determined as 2.65.

As to MRKKLKWLSTGTGGTYTQFLFKYQFSNNDS, the AmyQ secretion efficiency was 7.11.

As to MKKRLIAPMLLSAASLAFFAMSGSAQRAAY, the AmyQ secretion efficiency stood at 6.9.

The sequence “MTKRLSTTLTFLGIQAFAGGIILATAVLAAVFYLTDEDQAAAV” yielded an AmyQ secretion efficiency of 6.23.

The sequence MKKKLAAGLTASAIVGTTLVVTPAEAKRK returned an AmyQ secretion efficiency of 6.02.

MPYLKRVLLLLVTGLFMSLFAVTATASAQDD returned an AmyQ secretion efficiency of 3.08.

As for MKSLPYTIALLFCGLIIVSMAAKGDED, the AmyQ secretion efficiency is 8.1.

Turning to MKKQIITATTAVVLGSTLFAGAKSAQSI, the AmyQ secretion efficiency stood at 3.92.

The sequence MPYLKRVLLLLVTGLFMSLFFLIAVTATASAQTG showed an AmyQ secretion efficiency of 1.09.

As for MKLSVKIAGVLTVAAAAMTAKMYVTAKGN, the AmyQ secretion efficiency was 8.14.

As for MKVLLSALLLLLFAFSPSASGKKL, the AmyQ secretion efficiency turned out to be 4.69.

The sequence MTSLMMLSMLTVMIASLFIFSSQALAVQY registered an AmyQ secretion efficiency of 3.98.

In the case of MFRKLLSSLAISALSLGLLVSAPTASFAAES, the AmyQ secretion efficiency stood at 5.47.

On to MKKGIIRFLLVSFVLFFALSTGITGVQAAPD, for which the AmyQ secretion efficiency stood at 2.73.

Sequence MKKLLAAGIIGLLTVRRRKKKSFAAEK registered an AmyQ secretion efficiency of 7.21.

For the sequence MKKSQYFIVFICFFVLFSVHPIAPAAADS, the AmyQ secretion efficiency is 4.14.

MKKWIYVVLVLSIAGIGGISVSAFSVHAASS had an AmyQ secretion efficiency of 5.09.

In the case of MKKKRRKLALTAAAGLGLTALHSAPAAKAAPL, the AmyQ secretion efficiency was determined as 2.69.

MRKVVGFLSVLGLAAVFPLTAQAEKA: the AmyQ secretion efficiency turned out to be 2.03.

Turning to MKVPKTMLLSTAAGLLLSLTATSCSAHYV, the AmyQ secretion efficiency was determined as 4.58.

As to MKKTIMSFVAVAALSTTAFGAHASAATI, the AmyQ secretion efficiency was 2.11.

MNFKKTVVSALSISALALSVSGVASGHEI had an AmyQ secretion efficiency of 4.67.

MRKKTKNRLISSVLSTVVISSLLFPGAAFAGASSK showed an AmyQ secretion efficiency of 1.5.

MKWMCSICCAAVLLAGGACQAEAV displayed an AmyQ secretion efficiency of 3.36.

In turn, MKWMCSICCAAVLLAGGAAQTEAV showed an AmyQ secretion efficiency of 3.03.

MKKLVLCVSILAVILSGVGLTQLS gave an AmyQ secretion efficiency of 5.94.

As for MGMKKKLSLGVASAALGLALVGGGTWNAFN, the AmyQ secretion efficiency amounted to 6.68.

As for MKRIRIPMTLALGAALTIAPLSFAFTASAEEN, the AmyQ secretion efficiency is 3.82.

Sequence MKRLLSTLLIGIMLLTFAPSSFAKQD displayed an AmyQ secretion efficiency of 2.65.

Sequence MLKKKWMVGLLAGCLAAGGFSYNNFATEN showed an AmyQ secretion efficiency of 6.75.

In the case of MKKRLIAPMLLSAASLAFFAQEGSAQAAAY, the AmyQ secretion efficiency came out at 2.53.

Take MRFTKVVGFLSVLGLAAKKKLTAQAEKA: the AmyQ secretion efficiency was 7.51.

In turn, MKSKWMSGLLLVAVGFSFTQVMVHAGDE returned an AmyQ secretion efficiency of 5.94.

In the case of MLKKKKTQYQILVGSTLGAFSFSSDASAKHV, the AmyQ secretion efficiency was found to be 5.99.

As for MKRTWNVCLTALLSVLLVAGSVPFHAEAAKK, the AmyQ secretion efficiency was found to be 2.52.

MKIRKILLSSALSFGMLISAVPALLAGT registered an AmyQ secretion efficiency of 4.82.

Turning to MKRTWNVCLTALLSVLLVAGSVPFHAEAAPD, the AmyQ secretion efficiency was 2.13.

On to MRGKSAVLLSLIMLIAGFLIYFSFQM, for which the AmyQ secretion efficiency is 8.11.

With MMKKLFHSTLIVLLFFSFFGVQPIHAKKR, the AmyQ secretion efficiency was determined as 2.74.

(Values after the supplement of paper PMC9942255.)
